In one test the target is T1, recombinant human IL-22 (human, UniProt Q9GZX6 34-179).
T1 construct: also called rh-IL22
T1 sequence: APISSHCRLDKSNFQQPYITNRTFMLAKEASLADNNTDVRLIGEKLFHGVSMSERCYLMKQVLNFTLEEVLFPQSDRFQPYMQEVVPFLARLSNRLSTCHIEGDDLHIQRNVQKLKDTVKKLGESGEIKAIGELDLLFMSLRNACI
Briefly: BLI (Octet), His-tagged VHH on HIS1K tips, IL-22 in solution. Background: In BLI a coated tip is dipped into the sample, and binding shifts an interference pattern.

The target of another test is T2, human serum albumin (human, UniProt P02768 25-609).
T2 construct: also called HSA
As to the kind of experiment: BLI (Gator), His-tagged VHH on anti-His sensor, HSA 100 nM in solution.

Test [1] has as its target T3, EGFR Fc (human, UniProt P00533 25-645).
T3 construct: also called EGFR-hFc; recombinant human EGFR-Fc
Briefly: ELISA, EGFR Fc coated, VHH at 0.4 nM.
Experimental: (§1) After four rounds of washing with PBST, the plate was incubated with detecting antibody anti-his-HRP (1:4000 dilution) 100 μl per well for one hour with shaking at 60 rpm. The plate was developed with 100 μL of TMB per well in the dark and then stopped by 50 μL of stop solution per well. […] Data was analyzed using GraphPad Prisma 9.1.

The target in test [2] is T3, EGFR Fc. As to the kind of experiment: ELISA, EGFR Fc coated, VHH at 10 nM. (In general: ELISA stands for enzyme-linked immunosorbent assay.)
Experimental: as §1
Test [3] concerns the target T3, EGFR Fc. As to the kind of experiment: ELISA, EGFR Fc coated, VHH at 0.016 nM.
Experimental: as §1
Test [4] addresses T3, EGFR Fc. As to the kind of experiment: ELISA, EGFR Fc coated.
Experimental: as §1
Test [5] deals with T3, EGFR Fc. As to the kind of experiment: ELISA, EGFR Fc coated, VHH at 50 nM.
Experimental: as §1
The target in test [6] is T3, EGFR Fc. As to the kind of experiment: ELISA, EGFR Fc coated, VHH at 0.0032 nM.
Experimental: as §1
The target of test [7] is T3, EGFR Fc. As to the kind of experiment: ELISA, EGFR Fc coated, VHH at 2 nM.
Experimental: as §1
For test [8], the target named is T3, EGFR Fc. As to the kind of experiment: ELISA, EGFR Fc coated, VHH at 0.08 nM.
Experimental: as §1
The target of test [9] is T3, EGFR Fc. As to the kind of experiment: ELISA, EGFR Fc coated, VHH at 500 nM.
Experimental: as §1

For orientation: Kd means the constant that tells how readily two partners part at equilibrium. Broadly, the koff is the rate constant with which the complex falls apart. The kon is the second-order rate constant of association. By EC50 is commonly meant the concentration giving half of the maximal effect. A low value points to an effect from little substance.

Experimental for human serum albumin: Kinetic binding analysis of MSA VHHs were performed with Gator Prime system equipped with analyze software. […] The experiments were done at 30° C. Prior to analysis, sensors were socked in Q buffer for 600 sec with shaking at 1000 rpm, and then 2 μM of HIS tagged MSA VHHs were loaded to Anti-His sensors with shaking at 400 rpm for 120 sec. Loaded sensors were transferred into Q buffer for 60 sec. Association of HSA or MSA at 100 nM was initiated and monitored for 120-180 sec with shaking at 1000 rpm, and finally dissociation in Q buffer for 120-180 sec with 1000 rpm shaking. Software V2.0 (Gator Bio) was used for data analysis. The on-rate (Kₒₙ) and off-rate (Kd) were determined by fitting of the association and dissociation phases of each sample. The mathematical model used assumes a 1:1 stoichiometry, fitting only one analyte in solution binding to one binding site on the surface. The equilibrium dissociation constant (KD), a measure for affinity, was then calculated as the ratio of Kd and Kₒₙ.
Experimental for recombinant human IL-22: Bio-Layer Interferometry (BLI), a label-free technology was used for measuring the binding kinetics of positive llama single domain antibodies. Affinity measurements were performed with Octet QKe equipped with Anti-Penta-His capture (HIS1K) biosensor tips (ForteBio®). The assay was performed at 30 C in 1×PBS buffer (Gibco®, PBS pH7.2). Samples were agitated at 1000 rpm. Prior to analysis, sensors were humidified for 15 minutes. Purified single domain antibodies was tested for its binding capacity with HIS1K sensor tips. Tips were loaded using 20 μg/ml of single domain antibodies. Loading proceeded for 300 s resulting in capture levels of between 1.8 and 2 nm. […] Association was initiated and monitored for 200 s, after which tips were transferred to 1×PBS buffer without Factor protein (Gibco, PBS pH 7.2), in order to monitor dissociation. Sensor data was collected throughout the experiments, processed, and analyzed using the Octet data analysis software 7 (Forte Bio).

B1: IL22-223 (VHH)
VHH: QVQLVESGGGLAQPGGSLRLSCAVSGFTLNYYVIAWFRQAPGKEREGVSCISSSDGSTYYTDSVKGRFTISRDNAKNTVYLQMDSLKPEDTAVYYCAADLRAYYTVPLWASEYDYWGQGTQVTVSS
notes: Llama single domain antibody with C-terminal His-tag; not shown: C-terminal His-tag
With B1, in the test with recombinant human IL-22, the Kd was 1.29 nM, the dissociation rate constant (koff) was 0.00036 s⁻¹ and the association rate constant (kon) was 278000 M⁻¹ s⁻¹.

B2: Humanized IL22-223 (VHH)
VHH: EVQLVESGGGLVQPGGSLRLSCAASGFTLNYYVMSWFRQAPGKEREGVSAISSSDGSTYYADSVKGRFTISRDNSKNTLYLQMNSLRAEDTAVYYCAADLRAYYTVPLWASEYDYWGQGTVSS
notes: not shown: C-terminal His-tag
For B2, in the test with recombinant human IL-22, the dissociation constant (Kd) was determined as 1.07 nM, the off-rate constant (koff) turned out to be 0.000547 s⁻¹ and the on-rate constant (kon) came to 509000 M⁻¹ s⁻¹.

B3: MSA2 (VHH)
VHH: EVQLVESGGGLAQAGGFLRLSCADSGHSFSLYAMAWFRQTPEKEREFVAAISSSGGDTYYADSVKGRFTISRENAKNTVYLQMDSLKPGDTAVYFCAGNYYTSQLMRGMYEHWGQGTQVTVSS
notes: Llama single domain antibody with C-terminal His-tag, made in HEK293; not shown: C-terminal His-tag
For B3, the koff in the test with human serum albumin worked out at 0.0225 s⁻¹.

B4: pgEG-SX9 (VHH, not shown: small tags and cut ends)
VHH: QVQLVESGGGLVQAGGSLRLSCAASVSGSALSNMAWYRQRPGNQRELVAHITFDNFTNYADSVKGRFTISRDNVKNTVDLQMSSLKPEDTAVYYCNARHFFGDNYWGKGTLVTVSS
For B4, the OD450 with EGFR Fc [1] was found to be 2.4; with EGFR Fc [2] it was 2.4; with EGFR Fc [3], 0.903; in the test with EGFR Fc [5], 2.28; with EGFR Fc [6], 0.237; with EGFR Fc [7], 2.64. Further, the OD450 is 1.84 with EGFR Fc [8] and 2.2 with EGFR Fc [9]. This molecule also gave a concentration giving a half-maximal response (EC50) in the test with EGFR Fc [4] of 0.0278 nM.

B5: IL22-354 (VHH)
VHH: EVQLVESGGGLVQPGGSLRLSCAASGFTLDYYAIAWFRQAPGKEREGVSCISTSDGSTYYADSVKGRFTISRDNAKNTVYLQMNSLKPEDTAVYYCAADPSPFFVAPLVDYEYDYWGQGTQVTVSS
notes: as for B1
As to B5, in the test with recombinant human IL-22, the dissociation constant Kd came to 0.366 nM, the off-rate constant (koff) came out at 0.000184 s⁻¹ and the kon was 503000 M⁻¹ s⁻¹.

B6: MSA6 (VHH)
VHH: QVQLVESGGGLVQPGGSLRLSCAASGLPSRVMGWFRQAAGKEREFVASISVSGIDTRYGDSVKGRFTISRDNTKSSLYLQMNSLKPEDTAVYYCAATDGQGNYRHWGQGTQVTVSS
notes: as for B3
Consider B6, for which, in the test with human serum albumin, the Kd was determined as 20.9 nM, the koff came to 0.00125 s⁻¹ and the on-rate (kon) turned out to be 59800 M⁻¹ s⁻¹.

B7: pgEG-SX52 (VHH, not shown: small tags and cut ends)
VHH: QVQLVESGGGLVKAGKSLRLSCAASVSSFDTYTMGWYRQAPGKQREQVAIITPGAGTHYADSVKGRFTISRDNAKNTVYLQMSSLKLEDTAVYYCKARHRITGYDYWGQGTQVTVSS
For the molecule B7, the OD450 with EGFR Fc [1] came to 2; in the test with EGFR Fc [2] it was 2.44; in the test with EGFR Fc [3], 0.32; with EGFR Fc [5] it was 2.33; in the test with EGFR Fc [6], 0.196; with EGFR Fc [7], 2.34. The OD450 was found to be 1.07 with EGFR Fc [8] and 2.23 with EGFR Fc [9]. For the same molecule, the EC50 with EGFR Fc [4] was 0.105 nM.

B8: pgEG-SX56 (VHH, not shown: small tags and cut ends)
VHH: QVQLVESGGGFVQAGGSLRLSCAASGRFLSIADMDWYRRVPGKQRELVASITRAGDTALEDSVKGRFTISRDNAKNTVHLQMNSVKPEDTAVYYCRADVTRSGTPYFEVWGQGTLVTVSS
For the molecule B8, the OD450 stood at 1.32 in the test with EGFR Fc [1]; 1.54 with EGFR Fc [2]; 0.569 with EGFR Fc [3]; 1.47 with EGFR Fc [5]; 0.409 with EGFR Fc [6]; 1.46 with EGFR Fc [7]. Besides, the OD450 was 1.15 in the test with EGFR Fc [8] and 1.5 with EGFR Fc [9]. Also, in the test with EGFR Fc [4], a half-maximal response (EC50) required 0.044 nM.

B9: pgEG-SX55 (VHH, not shown: small tags and cut ends)
VHH: QVQLVESGGGLVQPGGSLRLSCAGTGLIFTTYVMGWYRQAPGKQRELVAIVTNGGGTHYADFVKGRFTISRDNAKNTVSLQMNLLKPEDTAVYYCNARHLVRPGTNDYWGQGTLVTVSS
Regarding B9, the OD450 was found to be 1.61 with EGFR Fc [1]; 2.42 with EGFR Fc [2]; 0.193 with EGFR Fc [3]; 2.2 with EGFR Fc [5]; 0.125 in the test with EGFR Fc [6]; 2.22 with EGFR Fc [7]. Also, the OD450 was 0.5 with EGFR Fc [8] and 2.24 in the test with EGFR Fc [9]. In the test with EGFR Fc [4], this molecule registered an EC50 of 0.237 nM.

B10: pgEG-SX39 (VHH, not shown: small tags and cut ends)
VHH: QVQVAESGGGLVQAGESLRLSCTASGSISTINAVRWYRQTPGKQREFVAYISTDGGTDYADPVKGRFTISRDNAKNTWFLQMNSLKPEDTGVYMCNVVVTPYAYWGQGTQVTVSS
With B10, the OD450 with EGFR Fc [1] was found to be 0.067; with EGFR Fc [2], 0.093; with EGFR Fc [3] it was 0.072; with EGFR Fc [5], 0.147; with EGFR Fc [6], 0.075; with EGFR Fc [7], 0.073. Besides, the OD450 was 0.068 with EGFR Fc [8] and 0.503 with EGFR Fc [9]. This molecule also yielded a concentration giving a half-maximal response (EC50) in the test with EGFR Fc [4] of 2760 nM.

B11: pgEG-SX20 (VHH, not shown: small tags and cut ends)
VHH: QVQLVESGGGLVQAGGSLRLSCAGARSAFSIKPMTWYRQAPGKERELVAYFNSGGSTNYADSVKGRFTISRDNAKNTMYLQMNNLKPEDTAVYYCNAIPPLGSWGQGTQVTVSS
As to B11, the OD450 with EGFR Fc [1] worked out at 2.67; in the test with EGFR Fc [2], 2.6; with EGFR Fc [3], 1.13; with EGFR Fc [5] it was 2.67; in the test with EGFR Fc [6], 0.358; with EGFR Fc [7], 2.61. Besides, the values for the OD450 with EGFR Fc [8] and with EGFR Fc [9] were 1.95 and 2.53, respectively. For the same molecule, the EC50 with EGFR Fc [4] amounted to 0.025 nM.

B12: IL22-A3 (VHH)
VHH: QVQLVESGGGLVQPGGSLRLSCEASGRTFSSVSMGWFRQAPGKERVIVAAADWSGTTYYTGSLKGRFTISRDNAKNMVYLQMNSLKPEDTAVYYCAASDPRRSAYKYWGQGTQVTVSS
notes: as for B1
For B12, in the test with recombinant human IL-22, the Kd was determined as 0.817 nM, the koff amounted to 0.000405 s⁻¹ and the kon amounted to 496000 M⁻¹ s⁻¹.

(Values after patent US20250376535A1 (BEIJING STARMAB BIOMED TECHNOLOGY, published 2025).)
